Experimental findings from patent publication US20150210994A1 (CHILDREN S HOSPITAL OF PHILADELPHIA, published 2015) are described below.

Assay [1] concerns the target soluble mouse EPCR (mouse) (UniProt Q64695). Kind of assay: isothermal titration calorimetry, soluble murine EPCR.
Assay [2] addresses mouse endothelial protein C receptor (mEPCR), full-length, on CHO-K1 cells (mouse) (UniProt Q64695). Kind of assay: saturation binding on CHO-K1 cells with mEPCR, 10 to 1000 nM ligand; bound material eluted and quantified by western blot; binding to CHO-K1 cells without mEPCR subtracted; fit of bound against ligand concentration. On the technique in general: A western blot detects proteins with antibodies after separation by electrophoresis.

Assay [3] concerns the target human plasma-derived protein C (hPC) (human, UniProt P04070 43-461). Kind of assay: CHO-K1 cells with or without murine EPCR, EDTA elution, western blot. As for the experimental part:
(§1) FIG. 2A: Scheme for determining and quantifying binding of proteins to surface exposed mouse EPCR (mEPCR). The protein whose mEPCR binding is under investigation is added onto CHO-K1 cells expressing mEPCR (mEPCR+ve) or not (mEPCR−ve). Binding is done in the presence of physiological concentration of calcium and magnesium (1.6 mM and 0.6 mM, respectively). Following washing, the bound material is eluted with EDTA (10 mM). The bound, unbound and a portion of total loaded material are then subjected to polyacrylamide gel electrophoresis, transferred to nitrocellulose and detected by western blotting using protein-specific antibodies. FIG. 2B: Human plasma-derived protein C (hPC) or murine PC (mPC) that are known ligands for murine EPCR, were incubated with CHO-KI cells with or without murine EPCR expression. […] A variant mFVIIa bearing part of the mPC Gla domain ([1-11 mPC)-mFVIIa) restored binding of this chimeric molecule to murine EPCR.

The target in another assay is T1, mPC F4L (mouse, UniProt P33587 42-460).
T1 construct: Tested as HEK-293 supernatant after transient expression; Position 4 is counted on the mature polypeptide; also called mouse PC Phe4 to Leu
T1 sequence (looked up): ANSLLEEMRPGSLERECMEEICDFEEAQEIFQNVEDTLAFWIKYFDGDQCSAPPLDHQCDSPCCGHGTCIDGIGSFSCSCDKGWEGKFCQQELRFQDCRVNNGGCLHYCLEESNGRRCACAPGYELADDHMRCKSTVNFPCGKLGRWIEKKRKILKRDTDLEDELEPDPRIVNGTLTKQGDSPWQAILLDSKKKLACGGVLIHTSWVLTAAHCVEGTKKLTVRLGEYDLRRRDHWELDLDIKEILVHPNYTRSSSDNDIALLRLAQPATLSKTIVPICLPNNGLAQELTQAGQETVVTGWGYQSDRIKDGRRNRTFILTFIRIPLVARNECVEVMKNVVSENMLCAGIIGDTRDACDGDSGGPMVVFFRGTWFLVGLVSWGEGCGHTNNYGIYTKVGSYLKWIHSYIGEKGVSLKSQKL
Kind of assay: HEK-293 supernatant on CHO-K1 cells with or without mEPCR, western blot. As for the experimental part: as §1, with “The” for “FIG. 2A: Scheme for determining and quantifying binding of proteins to surface exposed mouse EPCR (mEPCR). The”
(§2) FIG. 4A: The Gla domain of the (1-11 mPC)-mFVIIa is shown. The blue box represents the first 11 amino acids of the mouse PC (mPC) Gla domain, whereas the red box represents the portion of the Gla domain of mouse FVIIa. […] Individual mutations were performed to change one amino acid in mFVIIa with the corresponding in (1-11 mPC)-mFVIIa. Following transient expression in HEK-293 cells, supernatant with each protein was incubated with CHO-K1 cells with or without expression of the mouse EPCR receptor. […] From top to bottom, sequences are SEQ ID NOs: 1-5. […]

Another assay deals with T2, murine protein C (mPC) (mouse, UniProt P33587 42-460).
T2 construct: also called mouse PC; mouse protein C
T2 sequence (looked up): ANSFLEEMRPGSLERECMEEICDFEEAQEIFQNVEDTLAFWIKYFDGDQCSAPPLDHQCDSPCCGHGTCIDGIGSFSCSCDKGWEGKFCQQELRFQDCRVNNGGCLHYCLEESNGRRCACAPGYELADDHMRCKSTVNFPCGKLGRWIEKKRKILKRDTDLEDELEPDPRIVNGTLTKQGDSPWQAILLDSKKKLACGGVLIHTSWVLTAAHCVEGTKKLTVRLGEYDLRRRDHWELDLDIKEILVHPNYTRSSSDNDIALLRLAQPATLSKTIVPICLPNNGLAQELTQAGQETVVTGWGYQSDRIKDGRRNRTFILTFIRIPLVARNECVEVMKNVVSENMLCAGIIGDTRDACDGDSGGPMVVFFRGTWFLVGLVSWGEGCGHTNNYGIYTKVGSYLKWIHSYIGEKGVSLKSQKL
Kind of assay: HEK-293 supernatant on CHO-K1 cells with or without mouse EPCR, western blot of the bound fraction. As for the experimental part: as §1, with “The” for “FIG. 2A: Scheme for determining and quantifying binding of proteins to surface exposed mouse EPCR (mEPCR). The”
as §2

For another assay, the target named is T3, mouse FVIIa (mFVIIa) (mouse, UniProt P70375 42-446).
T3 construct: mature; Recombinant; Has a Gla domain; also called mF7a
T3 sequence (looked up): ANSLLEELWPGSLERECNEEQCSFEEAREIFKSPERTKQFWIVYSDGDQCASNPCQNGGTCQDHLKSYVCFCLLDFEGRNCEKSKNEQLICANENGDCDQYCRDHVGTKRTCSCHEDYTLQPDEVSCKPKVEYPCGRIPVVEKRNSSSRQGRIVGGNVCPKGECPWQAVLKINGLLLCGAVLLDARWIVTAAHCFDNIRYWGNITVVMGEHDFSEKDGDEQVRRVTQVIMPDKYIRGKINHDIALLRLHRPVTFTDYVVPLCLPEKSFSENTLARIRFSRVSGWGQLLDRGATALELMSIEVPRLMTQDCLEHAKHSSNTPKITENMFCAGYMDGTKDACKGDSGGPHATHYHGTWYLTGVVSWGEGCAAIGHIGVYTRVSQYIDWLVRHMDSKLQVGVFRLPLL
Kind of assay: saturation binding on CHO-K1 cells with mEPCR, 10 to 1000 nM ligand; bound material eluted and quantified by western blot; binding to CHO-K1 cells without mEPCR subtracted; fit of bound against ligand concentration. The method, then: as §1
FIG. 7. Increasing concentration of ligand (mFVIIa or [1-11 mPC]-mFVIIa) was incubated with CHO-K1 cells without mEPCR (−mEPCR) or with mEPCR (+mEPCR). The experimental strategy described in Example I was followed and bound material was visualized. Following subtraction of non-specific binding (material incubated on CHO-K1[-]mEPCR cells), corrected amount of bound material (nM per 10⁶ cells) was plotted vs. concentration of ligand (nM). […]

For another assay, the target named is T4, Human FVIIa (NovoSeven) (human, UniProt P08709 61-466).
T4 construct: mature
T4 sequence (looked up): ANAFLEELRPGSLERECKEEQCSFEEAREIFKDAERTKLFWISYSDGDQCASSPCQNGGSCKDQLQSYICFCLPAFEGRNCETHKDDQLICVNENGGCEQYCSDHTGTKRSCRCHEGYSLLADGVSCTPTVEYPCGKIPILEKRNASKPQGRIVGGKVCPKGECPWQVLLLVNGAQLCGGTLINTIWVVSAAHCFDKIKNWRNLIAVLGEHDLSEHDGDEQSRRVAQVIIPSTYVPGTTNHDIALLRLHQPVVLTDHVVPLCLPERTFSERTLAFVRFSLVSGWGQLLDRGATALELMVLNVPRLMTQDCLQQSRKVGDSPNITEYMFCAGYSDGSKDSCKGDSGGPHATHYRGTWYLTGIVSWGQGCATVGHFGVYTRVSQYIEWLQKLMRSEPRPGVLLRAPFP
Kind of assay: CHO-K1 cells expressing human EPCR, western blot of bound fraction. As for the experimental part:
as §1
(§3) FIG. 12. Binding of variants of human activated FVII with amino acid changes at position 8 (normally a Leucine). Conditioned medium from transient transfection was added on CHO-K1 cells expressing human EPCR, as described in FIG. 2. […] Following the wash of unbound material, the bound fraction was visualized by western blotting (shown in the bottom image). […] Human FVIIa (NovoSeven) is shown as a control for positive binding. […]

Assay [4] addresses T5, wildtype human FVIIa (Leu at position 8), PACE/furin construct (human, UniProt P08709 61-466).
T5 construct: mature; Tested as conditioned medium from transiently transfected HEK-293 cells
T5 sequence (looked up): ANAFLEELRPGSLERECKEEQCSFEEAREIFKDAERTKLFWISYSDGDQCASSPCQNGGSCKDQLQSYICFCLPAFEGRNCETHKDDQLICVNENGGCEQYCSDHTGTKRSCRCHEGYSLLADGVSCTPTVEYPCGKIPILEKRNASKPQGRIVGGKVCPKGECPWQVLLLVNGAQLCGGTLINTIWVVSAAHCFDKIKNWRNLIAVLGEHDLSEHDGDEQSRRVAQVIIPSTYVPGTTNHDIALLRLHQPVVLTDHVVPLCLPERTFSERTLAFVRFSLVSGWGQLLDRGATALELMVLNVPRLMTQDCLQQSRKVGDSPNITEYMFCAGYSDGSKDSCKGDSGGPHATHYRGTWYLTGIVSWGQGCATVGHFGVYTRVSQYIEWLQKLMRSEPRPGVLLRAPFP
In words: conditioned medium on CHO-K1 cells expressing human EPCR, western blot of bound fraction. The method, then: as §1, §3

human plasma-derived protein C (hPC), sequence (P04070 43-461): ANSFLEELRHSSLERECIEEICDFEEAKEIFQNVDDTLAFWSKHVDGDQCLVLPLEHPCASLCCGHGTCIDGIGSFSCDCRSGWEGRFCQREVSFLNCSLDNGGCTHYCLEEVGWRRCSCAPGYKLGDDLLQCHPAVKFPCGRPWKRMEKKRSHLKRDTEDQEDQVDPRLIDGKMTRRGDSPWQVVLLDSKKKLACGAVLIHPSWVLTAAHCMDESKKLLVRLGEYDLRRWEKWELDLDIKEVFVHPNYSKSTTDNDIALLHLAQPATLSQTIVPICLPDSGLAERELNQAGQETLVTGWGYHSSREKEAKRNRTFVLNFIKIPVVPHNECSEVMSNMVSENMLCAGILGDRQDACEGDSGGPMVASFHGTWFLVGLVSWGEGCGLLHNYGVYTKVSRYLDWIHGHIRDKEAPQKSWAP

For orientation: Kd means the free concentration of one partner at which half of the binding sites on the other are occupied at equilibrium, for simple one-to-one binding. High values mean lower affinity, low ones higher affinity. As to “(1-11 mPC)-mFVIIa (from UniProt P70375 42-446) (enzyme)”, the Kd in assay [1] came out at 480 nM; in assay [2], 340 nM.

B1: mouse endothelial protein C receptor (mEPCR), full-length, on CHO-K1 cells (receptor, UniProt Q64695 18-242, looked up)
chain: LCNSDGSQSLHMLQISYFQDNHHVRHQGNASLGKLLTHTLEGPSQNVTILQLQPWQDPESWERTESGLQIYLTQFESLVKLVYRERKENVFFPLTVSCSLGCELPEEEEEGSEPHVFFDVAVNGSAFVSFRPKTAVWVSGSQEPSKAANFTLKQLNAYNRTRYELQEFLQDTCVEFLENHITTQNMKGSQTGRSYTSLVLGILMGCFIIAGVAVGIFMCTSGRRC
notes: whole, on cells; also called murine EPCR; mouse EPCR
For the molecule B1, the results for the binding result (in assay [3]; in the assay with mPC F4L; with murine protein C (mPC)) were “binds”, “no binding” and “binds”, respectively. Also, binding with mouse FVIIa (mFVIIa) was characterised by a dissociation constant (Kd) of 10600 nM.

B2: human EPCR on CHO-K1 cells (receptor, UniProt Q9UNN8 18-238, looked up)
chain: SQDASDGLQRLHMLQISYFRDPYHVWYQGNASLGGHLTHVLEGPDTNTTIIQLQPLQEPESWARTQSGLQSYLLQFHGLVRLVHQERTLAFPLTIRCFLGCELPPEGSRAHVFFEVAVNGSSFVSFRPERALWQADTQVTSGVVTFTLQQLNAYNRTRYELREFLEDTCVQYVQKHISAENTKGSQTSRSYTSLVLGVLVGSFIIAGVAVGIFLCTGGRRC
notes: whole, on cells; also called hEPCR
On to B2, for which the binding result (in the assay with Human FVIIa (NovoSeven); in assay [4]) was “binds” throughout.
